Drawing on patent US20240218030A1 (published 2024), this text covers Kd for one molecule.

The target in the assay is human transferrin receptor-Fc tag standard (human, UniProt P02786 89-760). Put plainly: ELISA. Background: ELISA stands for enzyme-linked immunosorbent assay.
Sequence of human transferrin receptor-Fc tag standard (P02786 89-760): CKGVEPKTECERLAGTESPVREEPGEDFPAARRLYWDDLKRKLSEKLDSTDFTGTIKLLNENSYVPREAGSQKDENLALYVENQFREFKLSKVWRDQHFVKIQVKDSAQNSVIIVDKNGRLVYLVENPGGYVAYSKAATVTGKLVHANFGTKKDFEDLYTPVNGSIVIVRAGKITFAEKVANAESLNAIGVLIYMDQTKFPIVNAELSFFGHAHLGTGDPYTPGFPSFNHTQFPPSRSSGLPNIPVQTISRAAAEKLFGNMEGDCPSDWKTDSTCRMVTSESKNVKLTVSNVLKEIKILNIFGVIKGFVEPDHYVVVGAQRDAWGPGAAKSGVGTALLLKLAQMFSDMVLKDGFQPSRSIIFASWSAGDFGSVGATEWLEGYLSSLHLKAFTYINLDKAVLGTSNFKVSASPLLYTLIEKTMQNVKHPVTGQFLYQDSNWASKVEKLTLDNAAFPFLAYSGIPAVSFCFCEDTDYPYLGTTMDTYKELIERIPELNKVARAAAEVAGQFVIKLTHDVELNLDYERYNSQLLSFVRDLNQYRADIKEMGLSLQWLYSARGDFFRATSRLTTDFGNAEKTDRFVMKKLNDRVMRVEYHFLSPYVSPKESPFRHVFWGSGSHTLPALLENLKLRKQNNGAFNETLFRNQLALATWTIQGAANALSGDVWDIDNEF

B1: huHF_Mutant1-dual (designed binder)
chain: MTTASTSQVRQNYHAASEAAINAQINLELYASYVYLSMSYYFDRDDVALKNFAKYFLHQSHEEREHAEKLMKLQNQRGGRIALADIQKPDCDDGGSYGSLYAFDIWESGLNAMECALHLEKNVNQSLLELHKLATDKNDPHLCDFIETHYLNEQVKAIKELGDHVTNLRKMGAPESGLAEYLFDKHTLGDSDNESMPSFITLASLSTWEGYFDF
B1: binding was put at a Kd of 182 nM.
